Bridge positions count the residues as written; N and C are the ends. Ends that are not written are not given here. I, II: the chains in the order shown.
B1: Ex4C-Ex4C: Homodimer of Ex4C(NH2) (SEQ ID NO: 3), joined by a disulfide bond between the C-terminal Cys residues (peptide)
chain 1: HGEGTFTSDLSKQMEEEAVRLFIEWLKNGGSGGSC
chain 2: B1 chain 1
modifications: disulfide homodimer, C-terminal amide; Ex4C peptide sequence
B2: Di-GLP-G8C: Homodimer of GLP-G8C (SEQ ID NO: 4), formed by oxidation at the C-terminal Cys (peptide)
chain 1: HGEGTFTSDVSSYLEGQAAKEFIAWLVKGGGGGSC
chain 2: B2 chain 1
modifications: disulfide I:35-II:35

Test system: Balb/c mice
Experiment: Blood sugar regulation in mice in vivo after intraperitoneal drug and glucose injection
Settings: 3 hours after administration; 100 μl of 10 nmol/L drug i.p. with 200 μl of 40% glucose; FIG. 5
Procedure: After fasting overnight, mice were intraperitoneally injected respectively with 100 μl of different drugs that were dissolved to 10 nmol/L in a 10 mmol/L sodium phosphate buffer (pH6.5), and meanwhile injected with 200 μl of glucose solution (40%). Blood was sampled at 30, 60, 120, and 180 min after drug administration and blood sugar was assayed (Blood sugar meter, LifeScan, Inc.). Then, 200 μl of glucose solution (40%) was intraperitoneally injected again at 24 hours, 48 hours, 72 hours and 96 hours after drug administration, respectively. Blood was sampled at 30 and 60 min after glucose administration and blood sugar was assayed (Blood sugar meter, LifeScan, Inc.).

Molecule	blood sugar level
B1	well-regulated
B2	well-regulated

Reference: patent US8557771B2, “Homodimer of insulinotropic peptide analogues and method for preparation thereof and use thereof” (Chongqing Fagen Biomedical Inc., priority 2009, dated 2013)
